Data: paper PMC3902948

Key:
Prp43-Strep = Prp43-Strep (Saccharomyces cerevisiae S288c, UniProt P53131 1-767); assay: UV cross-linking
[1] = molecular target: Prp43-Strep;Strep-Ntr1(1-120) (Saccharomyces cerevisiae …, UniProt P53131;Q06411 1-767;1-120, |); assay: UV cross-linking
Chain of Prp43-Strep;Strep-Ntr1(1-120) (P53131 whole entry, chain 1 of 2): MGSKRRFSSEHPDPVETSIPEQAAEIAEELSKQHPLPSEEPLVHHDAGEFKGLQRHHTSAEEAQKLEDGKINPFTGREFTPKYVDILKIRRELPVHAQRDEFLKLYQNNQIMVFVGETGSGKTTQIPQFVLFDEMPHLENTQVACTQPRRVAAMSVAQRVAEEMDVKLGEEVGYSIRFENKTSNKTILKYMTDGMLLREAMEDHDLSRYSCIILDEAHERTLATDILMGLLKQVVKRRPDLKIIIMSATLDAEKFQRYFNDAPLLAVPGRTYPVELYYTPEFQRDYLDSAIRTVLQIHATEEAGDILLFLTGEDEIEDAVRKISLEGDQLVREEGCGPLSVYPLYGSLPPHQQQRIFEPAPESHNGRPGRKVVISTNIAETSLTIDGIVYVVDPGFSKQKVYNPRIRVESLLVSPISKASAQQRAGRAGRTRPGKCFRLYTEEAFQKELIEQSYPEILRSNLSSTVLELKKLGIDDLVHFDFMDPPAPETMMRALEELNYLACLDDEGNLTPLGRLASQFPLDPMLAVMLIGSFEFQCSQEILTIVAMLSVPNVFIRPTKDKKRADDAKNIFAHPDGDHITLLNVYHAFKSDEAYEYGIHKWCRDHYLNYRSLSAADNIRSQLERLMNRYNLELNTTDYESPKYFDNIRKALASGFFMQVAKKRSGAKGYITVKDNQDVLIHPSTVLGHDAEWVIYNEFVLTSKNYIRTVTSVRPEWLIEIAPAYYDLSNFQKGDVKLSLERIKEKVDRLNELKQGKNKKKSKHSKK
Chain of Prp43-Strep;Strep-Ntr1(1-120) (Q06411 1-120, chain 2 of 2): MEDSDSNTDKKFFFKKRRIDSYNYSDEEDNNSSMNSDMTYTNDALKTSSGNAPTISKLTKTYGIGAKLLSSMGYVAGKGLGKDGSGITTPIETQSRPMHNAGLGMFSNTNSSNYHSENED

Chain of Prp43-Strep (P53131 whole entry): as the sequence (P53131 whole entry, chain 1 of 2) above

Binder: GACGGGCUGUUGGUGAUGGAC (ssRNA) [21-mer ssRNA]
- binding result (Prp43-Strep): binds
- binding result [1]: binds
